In article PMC12416549 (2024):
Substitutions are numbered along the chain they refer to. Names and notes keep the numbering of the source.

T1: TNFR1 (Homo sapiens, UniProt P19438)
T1 chain: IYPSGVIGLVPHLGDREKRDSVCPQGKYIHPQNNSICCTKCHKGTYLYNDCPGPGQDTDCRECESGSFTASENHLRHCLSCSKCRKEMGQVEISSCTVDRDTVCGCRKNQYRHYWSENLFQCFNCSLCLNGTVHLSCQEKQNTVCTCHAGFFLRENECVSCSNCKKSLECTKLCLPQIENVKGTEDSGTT

B1: D32F (designed binder)
chain: SMEEEVEKAAKEYEKKKKEAIEKHLEKLKAKFKEAAERFLKELEEAAKEYAKDEAKTMSEEEAKRRAKKYKEKVLLSELSEEEQKEIKEAEEKLVRTILKYVEEAAK
B2: M58A (designed binder)
chain: B1 chain with F32D, M58A
B3: E82A (designed binder)
chain: B1 chain with F32D, E82A
B4: E86T (designed binder)
chain: B1 chain with F32D, E86T
B5: A67K (designed binder)
chain: B1 chain with F32D, A67K
B6: E12T (designed binder)
chain: B1 chain with E12T, F32D
B7: V102W (designed binder)
chain: B1 chain with F32D, V102W
B8: A20F (designed binder)
chain: B1 chain with A20F, F32D
B9: S1D (designed binder)
chain: B1 chain with S1D, F32D
B10: K100L (designed binder)
chain: B1 chain with F32D, K100L
B11: E62Y (designed binder)
chain: B1 chain with F32D, E62Y
B12: H24T (designed binder)
chain: B1 chain with H24T, F32D
B13: D53L (designed binder)
chain: B1 chain with F32D, D53L
B14: S80H (designed binder)
chain: B1 chain with F32D, S80H
B15: K15R (designed binder)
chain: B1 chain with K15R, F32D
B16: Y50N (designed binder)
chain: B1 chain with F32D, Y50N
B17: F39S (designed binder)
chain: B1 chain with F32D, F39S
B18: S1M (designed binder)
chain: B1 chain with S1M, F32D
B19: E86V (designed binder)
chain: B1 chain with F32D, E86V
B20: F39I (designed binder)
chain: B1 chain with F32D, F39I
B21: A55N (designed binder)
chain: B1 chain with F32D, A55N
B22: A46S (designed binder)
chain: B1 chain with F32D, A46S
B23: S59K (designed binder)
chain: B1 chain with F32D, S59K
B24: D53M (designed binder)
chain: B1 chain with F32D, D53M
B25: E62L (designed binder)
chain: B1 chain with F32D, E62L
B26: Y101R (designed binder)
chain: B1 chain with F32D, Y101R
B27: I87Q (designed binder)
chain: B1 chain with F32D, I87Q
B28: K71G (designed binder)
chain: B1 chain with F32D, K71G
B29: A51G (designed binder)
chain: B1 chain with F32D, A51G
B30: E81P (designed binder)
chain: B1 chain with F32D, E81P
B31: E12Q (designed binder)
chain: B1 chain with E12Q, F32D
B32: E60A (designed binder)
chain: B1 chain with F32D, E60A
B33: K17I (designed binder)
chain: B1 chain with K17I, F32D
B34: K18I (designed binder)
chain: B1 chain with K18I, F32D
B35: A47P (designed binder)
chain: B1 chain with F32D, A47P
B36: L75M (designed binder)
chain: B1 chain with F32D, L75M
B37: F39Q (designed binder)
chain: B1 chain with F32D, F39Q
B38: E3Q (designed binder)
chain: B1 chain with E3Q, F32D
B39: E89W (designed binder)
chain: B1 chain with F32D, E89W
B40: V102P (designed binder)
chain: B1 chain with F32D, V102P
B41: K29C (designed binder)
chain: B1 chain with K29C, F32D
B42: K68I (designed binder)
chain: B1 chain with F32D, K68I
B43: K11M (designed binder)
chain: B1 chain with K11M, F32D
B44: V102H (designed binder)
chain: B1 chain with F32D, V102H
B45: A63L (designed binder)
chain: B1 chain with F32D, A63L
B46: A36W (designed binder)
chain: B1 chain with F32D, A36W
B47: E26A (designed binder)
chain: B1 chain with E26A, F32D
B48: L43W (designed binder)
chain: B1 chain with F32D, L43W
B49: K33E (designed binder)
chain: B1 chain with F32D, K33E
B50: E83Y (designed binder)
chain: B1 chain with F32D, E83Y
B51: E22G (designed binder)
chain: B1 chain with E22G, F32D
B52: E14V (designed binder)
chain: B1 chain with E14V, F32D
B53: L79R (designed binder)
chain: B1 chain with F32D, L79R
B54: A67G (designed binder)
chain: B1 chain with F32D, A67G
B55: K11I (designed binder)
chain: B1 chain with K11I, F32D
B56: K17A (designed binder)
chain: B1 chain with K17A, F32D
B57: A36I (designed binder)
chain: B1 chain with F32D, A36I
B58: L79N (designed binder)
chain: B1 chain with F32D, L79N
B59: L43I (designed binder)
chain: B1 chain with F32D, L43I

Biological target: T1, TNFR1
Assay: yeast display SC50

| Binder | apparent Kd (screen) [nM] |
| --- | --- |
| B1 | 6.43 |
| B2 | 10.4 |
| B3 | 0.593 |
| B4 | 0.956 |
| B5 | 1.54 |
| B6 | 1.05 |
| B7 | 1.4 |
| B8 | 0.446 |
| B9 | 0.446 |
| B10 | 1.69 |
| B11 | 0.869 |
| B12 | 1.16 |
| B13 | 13.8 |
| B14 | 0.956 |
| B15 | 0.593 |
| B16 | 1.54 |
| B17 | 7.07 |
| B18 | 2.25 |
| B19 | 1.05 |
| B20 | 3.99 |

| Binder | apparent Kd (screen) [nM] |
| --- | --- |
| B21 | 11.4 |
| B22 | 0.49 |
| B23 | 1.05 |
| B24 | 4.83 |
| B25 | 0.653 |
| B26 | 0.446 |
| B27 | 3 |
| B28 | 5.31 |
| B29 | 2.05 |
| B30 | 0.49 |
| B31 | 0.956 |
| B32 | 0.956 |
| B33 | 0.956 |
| B34 | 0.653 |
| B35 | 10.4 |
| B36 | 0.49 |
| B37 | 5.84 |
| B38 | 2.25 |
| B39 | 1.69 |
| B40 | 0.49 |

| Binder | apparent Kd (screen) [nM] |
| --- | --- |
| B41 | 1.4 |
| B42 | 0.869 |
| B43 | 0.446 |
| B44 | 0.49 |
| B45 | 9.41 |
| B46 | 0.446 |
| B47 | 1.05 |
| B48 | 2.73 |
| B49 | 0.539 |
| B50 | 2.05 |
| B51 | 1.05 |
| B52 | 11.4 |
| B53 | 13.8 |
| B54 | 0.49 |
| B55 | 0.539 |
| B56 | 1.86 |
| B57 | 1.54 |
| B58 | 12.5 |
| B59 | 1.4 |
